Measurements from publication PMC9458440, “Cryo-EM structure of the Smc5/6 holo-complex” (Nucleic Acids Research, 2022).

T1: Smc6 (Walker B mutant E1048Q), subunit of the S. cerevisiae Smc5/6 holo-complex (S. cerevisiae, UniProt Q12749 1-1114, E1048Q)
T1 construct: Smc6, Saccharomyces cerevisiae; the model holds amino acids 74-213, 215-290, 292-370, 387-431, 436-805, 814-919, 922-1104; The complex was crosslinked with BS3; also called ν-SMC; source: recombinant, expressed in insect cells, purified as holo-complex (Superose 6 SEC), BS3-crosslinked
T1 sequence: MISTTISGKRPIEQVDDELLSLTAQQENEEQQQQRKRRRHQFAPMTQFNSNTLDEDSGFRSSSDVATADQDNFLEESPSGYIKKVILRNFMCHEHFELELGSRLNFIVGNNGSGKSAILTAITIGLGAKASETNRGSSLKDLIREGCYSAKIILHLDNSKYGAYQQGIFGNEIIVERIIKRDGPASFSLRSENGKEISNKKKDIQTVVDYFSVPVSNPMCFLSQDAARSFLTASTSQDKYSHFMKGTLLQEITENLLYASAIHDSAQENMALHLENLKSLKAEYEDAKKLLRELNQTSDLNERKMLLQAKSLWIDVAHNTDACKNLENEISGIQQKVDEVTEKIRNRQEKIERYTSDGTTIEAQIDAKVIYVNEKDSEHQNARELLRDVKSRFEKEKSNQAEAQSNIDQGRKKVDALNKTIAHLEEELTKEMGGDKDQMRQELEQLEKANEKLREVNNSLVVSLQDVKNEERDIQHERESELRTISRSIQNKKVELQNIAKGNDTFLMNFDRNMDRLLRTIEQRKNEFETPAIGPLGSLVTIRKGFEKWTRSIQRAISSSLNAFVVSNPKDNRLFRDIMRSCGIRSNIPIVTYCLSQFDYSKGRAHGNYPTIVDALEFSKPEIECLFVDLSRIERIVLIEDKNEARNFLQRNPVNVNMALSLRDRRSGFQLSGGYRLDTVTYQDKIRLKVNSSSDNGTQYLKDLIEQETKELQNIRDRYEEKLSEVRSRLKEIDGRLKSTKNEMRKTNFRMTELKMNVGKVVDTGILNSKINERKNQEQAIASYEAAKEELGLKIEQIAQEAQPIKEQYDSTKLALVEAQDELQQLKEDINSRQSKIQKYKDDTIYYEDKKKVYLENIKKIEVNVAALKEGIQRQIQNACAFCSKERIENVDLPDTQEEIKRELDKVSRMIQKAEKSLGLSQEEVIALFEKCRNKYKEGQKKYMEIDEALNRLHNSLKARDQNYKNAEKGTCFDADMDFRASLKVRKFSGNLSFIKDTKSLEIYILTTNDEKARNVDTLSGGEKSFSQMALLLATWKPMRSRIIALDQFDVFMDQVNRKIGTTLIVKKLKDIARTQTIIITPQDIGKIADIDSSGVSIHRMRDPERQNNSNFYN

B1: Smc5 (Walker B mutant E1015Q), subunit of the S. cerevisiae Smc5/6 holo-complex (natural protein)
chain: MTSLIDLGRYVERTHHGEDTEPRSKRVKIAKPDLSSFQPGSIIKIRLQDFVTYTLTEFNLSPSLNMIIGPNGSGKSTFVCAVCLGLAGKPEYIGRSKKVEDFIKNGQDVSKIEITLKNSPNVTDIEYIDARDETIKITRIITRSKRRSDYLINDYQVSESVVKTLVAQLNIQLDNLCQFLSQERVEEFARLKSVKLLVETIRSIDASLLDVLDELRELQGNEQSLQKDLDFKKAKIVHLRQESDKLRKSVESLRDFQNKKGEIELHSQLLPYVKVKDHKEKLNIYKEEYERAKANLRAILKDKKPFANTKKTLENQVEELTEKCSLKTDEFLKAKEKINEIFEKLNTIRDEVIKKKNQNEYYRGRTKKLQATIISTKEDFLRSQEILAQTHLPEKSVFEDIDIKRKEIINKEGEIRDLISEIDAKANAINHEMRSIQRQAESKTKSLTTTDKIGILNQDQDLKEVRDAVLMVREHPEMKDKILEPPIMTVSAINAQFAAYLAQCVDYNTSKALTVVDSDSYKLFANPILDKFKVNLRELSSADTTPPVPAETVRDLGFEGYLSDFITGDKRVMKMLCQTSKIHTIPVSRRELTPAQIKKLITPRPNGKILFKRIIHGNRLVDIKQSAYGSKQVFPTDVSIKQTNFYQGSIMSNEQKIRIENEIINLKNEYNDRKSTLDALSNQKSGYRHELSELASKNDDINREAHQLNEIRKKYTMRKSTIETLREKLDQLKREARKDVSQKIKDIDDQIQQLLLKQRHLLSKMASSMKSLKNCQKELISTQILQFEAQNMDVSMNDVIGFFNEREADLKSQYEDKKKFVKEMRDTPEFQSWMREIRSYDQDTKEKLNKVAEKYEEEGNFNLSFVQDVLDKLESEIAMVNHDESAVTILDQVTAELRELEHTVPQQSKDLETIKAKLKEDHAVLEPKLDDIVSKISARFARLFNNVGSAGAVRLEKPKDYAEWKIEIMVKFRDNAPLKKLDSHTQSGGERAVSTVLYMIALQEFTSAPFRVVDQINQGMDSRNERIVHKAMVENACAENTSQYFLITPKLLTGLHYHEKMRIHCVMAGSWIPNPSEDPKMIHFGETSNYSFD
notes: Smc5, Saccharomyces cerevisiae; the model holds amino acids 35-390, 394-882, 884-1068; The complex was crosslinked with BS3; also called κ-SMC; source: recombinant, expressed in insect cells, purified as holo-complex (Superose 6 SEC), BS3-crosslinked
B2: Nse4 with HaloTag, kleisin subunit of the S. cerevisiae Smc5/6 holo-complex (natural protein)
chain: MSSTVISRKRRNSTVTEPDSSGETRKQKKSRSDEKSSSSKDGDPQLEFKVLQGYRDLESEMHKGRAQVTRTGDIGVAMDNLNAVDSLFNKVIGIKNNGLFAHDARAMVSISELAQISVRNLKFDDSRSMVNLENIVNSLKRYMLKEHFKLNNIAENRNDLTLAADEQSAADQQEESDGDIDRTPDDNHTDKATSSFKATSMRHSYLQQFSHYNEFSQFNWFRIGALYNTISKNAPITDHLMGPLSIEKKPRVLTQRRRNNDQVGEKITAEKITQHSLNSTQQETTPEQVKKCFKKLSKKLGPEGSINLFKFIIDPNSFSRSIENLFYTSFLIKEGKLLMEHDEEGLPTIKIKQSISHTDSRSKEIERQRRRAAHQNHIIFQMDMPTWRKLIKKYNITSPFLD
notes: Nse4, Saccharomyces cerevisiae; the model holds amino acids 40-124, 184-202, 213-245, 283-402; Density of the HaloTag attached to Nse4 was removed by particle subtraction, so the tag was on the protein on the grid; its end is told only for the yeast strain (C-terminal), not for the recombinant protein; source: recombinant, expressed in insect cells, purified as holo-complex (Superose 6 SEC), …

Assays:
Experiment in all cases: cryo-EM structure; BS3-crosslinked six-subunit holo-complex, apo / non-liganded; fractions from Superose 6 diluted to 20 mM HEPES.NaOH pH 7.5, 50 mM NaCl, 0.5 mM TCEP, 0.1 mg/ml; maps at 10.8 Å (holo-complex), 8.53 Å (hinge/arm) and 6.5 Å (head-only); pseudo-atomic model built from homology and AlphaFold models
Conditions in all cases: both partners purified
[1] = target: T1, Smc6 (Walker B mutant E1048Q), subunit …
[2] = target: B1
[3] = target: B2

| Binder | binding result [1] | binding result [2] | binding result [3] |
| --- | --- | --- | --- |
| B1 | binds |  |  |
| Nse2 (Mms21), subunit of the S. cerevisiae Smc5/6 holo-complex (natural protein, Nse2 (Mms21), Saccharomyces cerevisiae; the model holds amino acids 1-267; source: recombinant, expressed in insect cells, purified as holo-complex (Superose 6 SEC), BS3-crosslinked) MALNDNPIPKSVPLHPKSGKYFHNLHARDLSNIYQQCYKQIDETINQLVDSTSPSTIGIEEQVADITSTYKLLSTYESESNSFDEHIKDLKKNFKQSSDACPQIDLSTWDKYRTGELTAPKLSELYLNMPTPEPATMVNNTDTLKILKVLPYIWNDPTCVIPDLQNPADEDDLQIEGGKIELTCPITCKPYEAPLISRKCNHVFDRDGIQNYLQGYTTRDCPQAACSQVVSMRDFVRDPIMELRCKIAKMKESQEQDKRSSQAIDVL | binds | binds |  |
| Nse1, subunit of the S. cerevisiae Smc5/6 holo-complex (natural protein, Nse1, Saccharomyces cerevisiae; the model holds amino acids 11-336; also called KITE subunit; source: recombinant, expressed in insect cells, purified as holo-complex (Superose 6 SEC), BS3-crosslinked) MEVHEEQVSAPVTGDATAKYLLQYILSARGICHENALILALMRLETDASTLNTEWSIQQWVDKLNDYINAINVKLNLLGYKIIRINHGIGRNAVTLKAKQNFESFEDNTAIRAHNNDYAVLQSIVLPESNRFFVYVNLASTEETKLATRFNQNEIEFMKWAIEQFMISGETIVEGPALETSIIVKEVNRILVAATGDSNLAKWRKFSTFTVGSTNLFQFQELTATDIEDLLLRLCELKWFYRTQEGKFGIDLRCIAELEEYLTSMYNLNTCQNCHKLAIQGVRCGNESCREENEETGENSLSQIWHVDCFKHYITHVSKNCDRCGSSLITEGVYVI |  | binds | binds |
| B2 | binds | binds |  |
